# According to paper PMC5414365, “Activin A more prominently regulates muscle mass in primates than does GDF8” (Nature Communications, 2017):
# B1: ActRIIB.hFc (soluble form of activin receptor type IIB fused to human IgG Fc fragment) (Fc fusion, UniProt Q13705 19-137, looked up)
# chain: SGRGEAETRECIYYNANWELERTNQSGLERCEGEQDKRLHCYASWRNSSGTIELVKKGCWLDDFNCYDRQECVATEENPQVYFCCCEGNFCNERFTHLPEAGGPEVTYEPPPTAPTLLT
# notes: activin receptor type IIB (ACVR2B; ActRIIB), soluble form; also called hActRIIB.hFc; ACVR2B; source: made at Regeneron
# B2: activin A (ligand, human, UniProt P08476 311-426, looked up)
# chain: GLECDGKVNICCKKQFFVSFKDIGWNDWIIAPSGYHANYCEGECPSHIAGTSGSSLSFHSTVINHYRMRGHSPFANLKSCCVPTKLRPMSMLYYDDGQNIIKKDIQNMIVEECGCS
# notes: human activin A: inhibin beta A chain, mature growth factor domain; also called Act A; source: bought: R&D Systems
# B3: activin B (ligand, human, UniProt P09529 293-407, looked up)
# chain: GLECDGRTNLCCRQQFFIDFRLIGWNDWIIAPTGYYGNYCEGSCPAYLAGVPGSASSFHTAVVNQYRMRGLNPGTVNSCCIPTKLSTMSMLYFDDEYNIVKRDVPNMIVEECGCA
# notes: human activin B: inhibin beta B chain, mature growth factor domain; source: bought: R&D Systems
# B4: GDF11 (ligand, human, UniProt O95390 299-407, looked up)
# chain: NLGLDCDEHSSESRCCRYPLTVDFEAFGWDWIIAPKRYKANYCSGQCEYMFMQKYPHTHLVQQANPRGSAGPCCTPTKMSPINMLYFNDKQQIIYGKIPGMVVDRCGCS
# notes: human GDF11, mature growth factor domain; source: bought: R&D Systems
# Assays:
# activin A = molecular target: B2; test: cell-based or functional assay
# activin B = molecular target: B3; test: cell-based or functional assay
# activin AB [1] = molecular target: T1, activin AB (human, UniProt P08476 311-426; P09529 293-407); test: cell-based or functional assay
# T1 sequence (looked up) 1: B2 chain
# T1 sequence (looked up) 2: B3 chain
# activin AC [2] = molecular target: T2, activin AC (human, UniProt P08476 311-426; P55103 237-352); test: cell-based or functional assay
# T2 sequence (looked up) 1: B2 chain
# T2 sequence (looked up) 2: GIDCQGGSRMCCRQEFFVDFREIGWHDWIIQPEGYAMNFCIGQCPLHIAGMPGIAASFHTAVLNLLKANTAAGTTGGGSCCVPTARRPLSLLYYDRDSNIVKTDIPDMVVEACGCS
# [3] = molecular target: T3, Growth and differentiation factor 8 (GDF8) (human, UniProt O14793 267-375); test: cell-based or functional assay
# T3 sequence (looked up): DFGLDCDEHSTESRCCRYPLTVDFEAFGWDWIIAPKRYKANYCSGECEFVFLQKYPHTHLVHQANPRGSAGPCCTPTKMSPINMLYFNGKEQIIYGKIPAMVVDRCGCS
# GDF11 = molecular target: B4; test: cell-based or functional assay
# activin AB [4] = molecular target: T1, activin AB; test: SPR; ligands at 40 to 0.78 nM injected over captured ActRIIB.hFc surface; Biacore T200, carboxymethyl dextran-coated CM4 sensor chip, 25 °C; settings: both partners purified
# activin AC [5] = molecular target: T2, activin AC; test: as above; settings: both partners purified
# [6] = molecular target: B1; test: as above; settings: both partners purified
binder,measurement,setting,value
B1,"IC50 of ActRIIB.hFc against activin A-stimulated Smad2/3 activity (CAGAx12-luc reporter, A204 cells; fixed ligand concentration)",activin A,0.63 nM
same,"IC50 of ActRIIB.hFc against activin B-stimulated Smad2/3 activity (CAGAx12-luc reporter, A204 cells; fixed ligand concentration)",activin B,0.55 nM
same,"IC50 of ActRIIB.hFc against activin AB-stimulated Smad2/3 activity (CAGAx12-luc reporter, A204 cells; fixed ligand concentration)",activin AB [1],0.39 nM
same,"IC50 of ActRIIB.hFc against activin AC-stimulated Smad2/3 activity (CAGAx12-luc reporter, A204 cells; fixed ligand concentration)",activin AC [2],0.085 nM
same,"IC50 of ActRIIB.hFc against GDF8-stimulated Smad2/3 activity (CAGAx12-luc reporter, A204 cells; fixed ligand concentration)",[3],0.3 nM
same,"IC50 of ActRIIB.hFc against GDF11-stimulated Smad2/3 activity (CAGAx12-luc reporter, A204 cells; fixed ligand concentration)",GDF11,0.21 nM
same,Kd,activin AB [4],0.0044 nM
same,Kd,activin AC [5],5.9 nM
B2,Kd,[6],< 0.0035 nM
B3,Kd,[6],0.0064 nM
B4,Kd,[6],0.014 nM
